Results from patent US20210063414A1, “METHODS FOR PREVENTING AND/OR TREATING BONE LOSS CONDITIONS BY MODULATING IRISIN” (Dana-Farber Cancer Institute, Inc., priority 2018, published 2021).

Legend:
Experiment in all cases: Crosslinking/co-immunoprecipitation/mass spectrometry (TMT quantitative proteomics) to identify irisin receptors
Format in all cases: binding
[1] = target: T1, MLO-Y4 cell surface proteins (Mus musculus, UniProt C0HKE1); conditions: co-precipitated protein Hist1h2ab (H2A1_MOUSE)
T1 construct: endogenous in cells; host or cells: MLO-Y4
In short: (§1)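 Relative protein abundance came from 6-plex TMT MS3 quantitation on an Orbitrap Fusion Lumos, after in-gel trypsin digestion of Coomassie-stained SDS-PAGE lanes. Input was a Ni-NTA pulldown (250 mM imidazole elution) of lysates from murine MLO-Y4 cells. These cells were treated on ice with His-tagged irisin or adipsin (10 nM, 20 min) in serum-free medium, then crosslinked with 1.5 mM DTSSP for 30 min.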

[2] = target: T2, MLO-Y4 cell surface proteins (Mus musculus, UniProt P04117); conditions: co-precipitated protein Fabp4 (FABP4_MOUSE)
T2 construct: endogenous in cells; host or cells: MLO-Y4
T2 sequence (P04117 1-132): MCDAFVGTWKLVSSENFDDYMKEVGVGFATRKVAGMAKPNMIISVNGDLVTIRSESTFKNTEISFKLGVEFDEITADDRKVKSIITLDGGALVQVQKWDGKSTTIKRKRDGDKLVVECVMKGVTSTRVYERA
In short: as §1

[3] = target: T3, MLO-Y4 cell surface proteins (Mus musculus, UniProt P09671); conditions: co-precipitated protein Sod2 (SODM_MOUSE)
T3 construct: endogenous in cells; host or cells: MLO-Y4
T3 sequence (P09671 25-222): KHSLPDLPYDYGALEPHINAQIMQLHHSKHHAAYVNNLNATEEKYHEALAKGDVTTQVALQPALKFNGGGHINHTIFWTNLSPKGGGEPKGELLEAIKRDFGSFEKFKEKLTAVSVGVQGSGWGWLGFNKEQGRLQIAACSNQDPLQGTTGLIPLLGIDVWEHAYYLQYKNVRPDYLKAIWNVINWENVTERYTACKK
In short: as §1

[4] = target: T4, MLO-Y4 cell surface proteins (Mus musculus, UniProt Q62028); conditions: co-precipitated protein Pla2r1 (PLA2R_MOUSE)
T4 construct: endogenous in cells; host or cells: MLO-Y4
In short: as §1

[5] = target: T5, MLO-Y4 cell surface proteins (Mus musculus, UniProt Q66GT5); conditions: co-precipitated protein Ptpmt1 (PTPM1_MOUSE)
T5 construct: endogenous in cells; host or cells: MLO-Y4
T5 sequence (Q66GT5 32-193): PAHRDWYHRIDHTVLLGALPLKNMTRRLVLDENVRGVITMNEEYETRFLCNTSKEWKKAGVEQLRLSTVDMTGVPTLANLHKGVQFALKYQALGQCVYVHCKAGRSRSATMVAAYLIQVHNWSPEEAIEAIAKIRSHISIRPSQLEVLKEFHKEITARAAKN
In short: as §1

[6] = target: T6, MLO-Y4 cell surface proteins (Mus musculus, UniProt Q9D125); conditions: co-precipitated protein Mrps25 (RT25_MOUSE)
T6 construct: endogenous in cells; host or cells: MLO-Y4
In short: as §1

T4 sequence (Q62028 27-1487): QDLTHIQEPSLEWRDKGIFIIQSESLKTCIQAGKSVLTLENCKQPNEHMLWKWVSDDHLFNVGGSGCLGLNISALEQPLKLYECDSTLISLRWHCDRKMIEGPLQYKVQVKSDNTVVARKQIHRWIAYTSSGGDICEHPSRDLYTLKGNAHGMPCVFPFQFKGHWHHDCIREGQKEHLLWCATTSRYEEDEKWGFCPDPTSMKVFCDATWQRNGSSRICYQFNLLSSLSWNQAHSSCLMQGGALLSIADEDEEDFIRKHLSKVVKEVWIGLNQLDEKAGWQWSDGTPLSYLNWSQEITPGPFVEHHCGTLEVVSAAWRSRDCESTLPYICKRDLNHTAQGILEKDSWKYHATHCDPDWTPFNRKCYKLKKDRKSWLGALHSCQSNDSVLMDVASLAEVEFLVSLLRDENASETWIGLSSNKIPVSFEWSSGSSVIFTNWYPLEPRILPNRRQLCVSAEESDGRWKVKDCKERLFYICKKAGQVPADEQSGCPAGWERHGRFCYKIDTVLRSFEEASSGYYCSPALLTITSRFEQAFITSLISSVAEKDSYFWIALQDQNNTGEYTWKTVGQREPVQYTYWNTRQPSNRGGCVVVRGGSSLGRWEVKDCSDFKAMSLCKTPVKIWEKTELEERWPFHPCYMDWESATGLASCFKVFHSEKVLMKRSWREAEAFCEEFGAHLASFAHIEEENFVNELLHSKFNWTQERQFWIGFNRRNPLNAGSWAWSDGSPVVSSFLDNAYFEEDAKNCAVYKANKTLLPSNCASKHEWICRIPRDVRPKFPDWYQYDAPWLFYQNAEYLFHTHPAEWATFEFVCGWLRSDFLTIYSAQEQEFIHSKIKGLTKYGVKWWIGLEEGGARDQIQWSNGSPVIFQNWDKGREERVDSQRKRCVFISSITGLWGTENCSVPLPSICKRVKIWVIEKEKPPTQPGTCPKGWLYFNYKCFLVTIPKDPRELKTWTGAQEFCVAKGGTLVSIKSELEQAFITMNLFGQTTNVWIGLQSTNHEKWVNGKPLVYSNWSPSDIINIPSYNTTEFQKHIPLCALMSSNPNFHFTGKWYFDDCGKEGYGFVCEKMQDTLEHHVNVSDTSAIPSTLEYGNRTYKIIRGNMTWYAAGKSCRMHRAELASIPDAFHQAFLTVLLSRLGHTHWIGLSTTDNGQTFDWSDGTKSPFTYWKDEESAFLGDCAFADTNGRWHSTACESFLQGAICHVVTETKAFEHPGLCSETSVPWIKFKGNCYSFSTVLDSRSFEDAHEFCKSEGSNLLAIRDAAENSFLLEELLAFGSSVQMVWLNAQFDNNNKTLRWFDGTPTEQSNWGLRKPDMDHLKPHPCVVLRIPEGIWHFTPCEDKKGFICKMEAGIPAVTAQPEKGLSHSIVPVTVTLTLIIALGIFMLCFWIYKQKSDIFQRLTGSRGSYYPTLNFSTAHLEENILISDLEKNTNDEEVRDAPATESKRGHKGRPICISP

B1: irisin: secreted cleaved form of FNDC5; recombinant human/mouse irisin with C-terminal his tag produced in HEK293 cells (protein)
chain: DSPSAPVNVTVRHLKANSAVVSWDVLEDEVVIGFAISQQKKDVRMLRFIQEVNTTTRSCALWDLEEDTEYIVHVQAISIQGQSPASEPVLFKTPREAEKMASKNKDEVTMKE
modifications: left off: small tags and cut ends
notes: secreted cleaved form of FNDC5; recombinant human/mouse irisin with C-terminal his tag produced in HEK293 cells
In the case of B1, the TMT signal-to-noise ratio [1] is reported as 119.978, the “irisin/adipsin TMT signal-to-noise ratio” value [1] is reported as 0.438 and the TMT signal-to-noise ratio [2] is reported as 40.1352. For the same molecule, the “irisin/adipsin TMT signal-to-noise ratio” value [2] was 0.054, the TMT signal-to-noise ratio [3] was 472.133 and the “irisin/adipsin TMT signal-to-noise ratio” value [3] was 0.458. For the same molecule, the TMT signal-to-noise ratio [4] was 142.778, the “irisin/adipsin TMT signal-to-noise ratio” value [4] was 0.275 and the TMT signal-to-noise ratio [5] was 51.6065. For the same molecule, the “irisin/adipsin TMT signal-to-noise ratio” value [5] was 0.559, the TMT signal-to-noise ratio [6] was 10.7103 and the “irisin/adipsin TMT signal-to-noise ratio” value [6] was 0.126.
